Reference: paper PMC10267556

Biological target: SARS-CoV-2 Omicron BA.4/5 spike (S) trimer, prefusion-stabilised ectodomain (SARS-CoV-2 (Omicron BA.4/5) | bacteriophage T4) (UniProt P0DTC2)
Experiment: cryo-EM structure

## SARS-CoV-2 Omicron BA.4/5 spike (S) trimer, prefusion-stabilised ectodomain (from UniProt P0DTC2 14-1208) (complex)
  stoichiometry N: 3
